Data reported in patent US20080267949A1, “Peptides capable of binding to serum proteins” (Ablynx N.V., priority 2006, published 2008).
Bridge positions count the residues as written; N and C are the ends. Ends that are not written are not given here. c2 linker = not defined here

Columns and labels:
[1] = biological target: T1, human serum albumin (HSA) (Homo sapiens, UniProt P02768); experiment: Phage binding assay: peptide expressed on pIII of M13 phage, on coated HSA (anti-M13 detection, Odyssey read-out)
T1 construct: purchased Sigma A5763
Description: (§1) After two selection rounds, monoclonal phage were screened for binding on HSA versus negative control antigen, ovalbumin (A5378, Sigma). Wells of a Maxisorp microtiter plate (Nunc) were coated using 10 μg/mL HSA or ovalbumin and blocked with SuperBlock T20 PBS Blocking Buffer (Pierce) to prevent non-specific binding. Phages, produced in 96-well plate, were diluted 1/10 in 1:1 (v:v) Superblock T20 PBS Blocking Buffer:PBS+0.05% Tween-20 and incubated on both HSA and ovalbumin. Bound phages were detected using anti-M13 (GE Healthcare) and goat anti-mouse IRDye700 (Rockland) and signals were read-out on Odyssey (LI-COR Biosciences). […] Both ‘hits’ were selected from the same library, i.e. originating from llama 117 in the non-constrained format. […] This peptide is referred to as 17D12. Its full amino acid sequence is given in SEQ ID NO: 1, and its encoding nucleotide sequence is given in SEQ ID NO:2. The amino acid sequence of the CDR3 loop is given in SEQ ID NO:3.
(§2) The phage binding assay was performed essentially as described in example 3. Phages, produced in 10 mL culture volume, were incubated on both HSA and ovalbumin in a ½ dilution series, starting with 7.5×10^11 phages/mL. […] Non-specific binding to ovalbumin is slightly higher for the constrained truncated peptide.
(§3) Binding of 17D12, as selected from primary screening after 2 selection rounds on HSA, to serum albumin of different species [mouse serum albumin (MSA, A3559, Sigma), cynomolgus serum albumin (CSA, in-house production), bovine serum albumin (BSA, A6003, Sigma) and HSA] and to negative control antigens [ovalbumin, human tumor necrosis factor α (TNF, in-house production)] was assessed using different phage concentrations. Additionally, similar binding studies were performed with two truncated variants of 17D12. Both peptides, i.e. 17D12-CDR3-NC (SEQ ID NO: 26) and 17D12-CDR3-C (SEQ ID NO;27), lack the flanking FR residues of 17D12 and the former is a non-constrained loop, whereas the latter is constrained (FIG. 4).
(§4) The phage binding assay was performed essentially as described in example 4.
(§5) The phage binding assay to HSA and ovalbumin was performed essentially as described in example 4. Phages, produced in 10 mL culture volume, were incubated on both HSA and ovalbumin in a ½ dilution series, starting with 10^12 phages/mL.

ovalbumin = biological target: T2, ovalbumin (Gallus gallus, UniProt P01012); experiment: Phage binding assay on coated negative control antigen ovalbumin
T2 construct: purchased Sigma A5378
T2 sequence (P01012 1-386): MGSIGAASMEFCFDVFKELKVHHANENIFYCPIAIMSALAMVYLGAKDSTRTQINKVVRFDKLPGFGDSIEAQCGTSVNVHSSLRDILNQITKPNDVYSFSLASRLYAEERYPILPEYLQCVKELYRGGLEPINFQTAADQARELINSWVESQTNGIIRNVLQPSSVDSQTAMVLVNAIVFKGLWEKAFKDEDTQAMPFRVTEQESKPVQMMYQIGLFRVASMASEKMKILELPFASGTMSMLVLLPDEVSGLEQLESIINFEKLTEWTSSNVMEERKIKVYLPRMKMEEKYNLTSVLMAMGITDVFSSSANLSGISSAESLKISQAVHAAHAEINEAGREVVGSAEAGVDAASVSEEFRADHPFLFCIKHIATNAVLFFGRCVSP
Description: as §1, §2, §3, §4, §5

[2] = biological target: T3, cynomolgus serum albumin (CSA) (Macaca fascicularis, UniProt A2V9Z4); experiment: Phage binding assay, cross-reactivity to cynomolgus serum albumin; settings: different phage concentrations
T3 construct: made in house
T3 sequence (A2V9Z4 25-608): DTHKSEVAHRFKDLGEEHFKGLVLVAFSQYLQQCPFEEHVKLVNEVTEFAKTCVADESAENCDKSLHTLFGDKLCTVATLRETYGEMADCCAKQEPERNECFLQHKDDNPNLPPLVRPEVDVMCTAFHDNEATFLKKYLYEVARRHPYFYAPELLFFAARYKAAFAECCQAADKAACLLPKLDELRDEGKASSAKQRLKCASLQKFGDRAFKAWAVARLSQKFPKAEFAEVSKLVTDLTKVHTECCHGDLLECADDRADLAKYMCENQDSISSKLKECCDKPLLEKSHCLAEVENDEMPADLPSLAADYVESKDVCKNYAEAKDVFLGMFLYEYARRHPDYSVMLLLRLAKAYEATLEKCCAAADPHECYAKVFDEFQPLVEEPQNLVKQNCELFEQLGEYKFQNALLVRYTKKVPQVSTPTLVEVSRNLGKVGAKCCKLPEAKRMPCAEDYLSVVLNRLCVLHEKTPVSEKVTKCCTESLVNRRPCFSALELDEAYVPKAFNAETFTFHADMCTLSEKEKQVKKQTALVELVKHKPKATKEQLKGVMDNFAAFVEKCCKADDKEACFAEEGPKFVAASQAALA
Description: as §1, §3, §4

[3] = biological target: T4, mouse serum albumin (MSA) (Mus musculus, UniProt P07724); experiment: Phage binding assay, cross-reactivity to mouse serum albumin; settings: different phage concentrations
T4 construct: purchased Sigma A3559
T4 sequence (P07724 25-608): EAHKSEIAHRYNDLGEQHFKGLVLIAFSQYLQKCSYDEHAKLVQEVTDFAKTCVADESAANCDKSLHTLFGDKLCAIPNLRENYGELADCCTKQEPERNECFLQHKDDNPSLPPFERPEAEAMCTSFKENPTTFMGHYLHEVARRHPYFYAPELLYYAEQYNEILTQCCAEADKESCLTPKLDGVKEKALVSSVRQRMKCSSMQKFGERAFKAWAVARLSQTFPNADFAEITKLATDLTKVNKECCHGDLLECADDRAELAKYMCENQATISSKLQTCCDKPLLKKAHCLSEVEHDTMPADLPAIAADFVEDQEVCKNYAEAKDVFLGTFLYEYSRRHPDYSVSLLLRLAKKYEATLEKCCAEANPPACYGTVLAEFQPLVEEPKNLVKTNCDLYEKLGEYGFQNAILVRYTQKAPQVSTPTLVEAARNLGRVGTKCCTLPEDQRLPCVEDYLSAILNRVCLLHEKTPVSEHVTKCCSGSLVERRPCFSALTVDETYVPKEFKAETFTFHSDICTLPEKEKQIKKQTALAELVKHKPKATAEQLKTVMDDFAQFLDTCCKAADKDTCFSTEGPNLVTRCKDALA
Description: as §1, §3, §4

[4] = biological target: T5, bovine serum albumin (BSA) (Bos taurus, UniProt P02769); experiment: Phage binding assay, cross-reactivity to bovine serum albumin; settings: different phage concentrations
T5 construct: purchased Sigma A6003
T5 sequence (P02769 25-607): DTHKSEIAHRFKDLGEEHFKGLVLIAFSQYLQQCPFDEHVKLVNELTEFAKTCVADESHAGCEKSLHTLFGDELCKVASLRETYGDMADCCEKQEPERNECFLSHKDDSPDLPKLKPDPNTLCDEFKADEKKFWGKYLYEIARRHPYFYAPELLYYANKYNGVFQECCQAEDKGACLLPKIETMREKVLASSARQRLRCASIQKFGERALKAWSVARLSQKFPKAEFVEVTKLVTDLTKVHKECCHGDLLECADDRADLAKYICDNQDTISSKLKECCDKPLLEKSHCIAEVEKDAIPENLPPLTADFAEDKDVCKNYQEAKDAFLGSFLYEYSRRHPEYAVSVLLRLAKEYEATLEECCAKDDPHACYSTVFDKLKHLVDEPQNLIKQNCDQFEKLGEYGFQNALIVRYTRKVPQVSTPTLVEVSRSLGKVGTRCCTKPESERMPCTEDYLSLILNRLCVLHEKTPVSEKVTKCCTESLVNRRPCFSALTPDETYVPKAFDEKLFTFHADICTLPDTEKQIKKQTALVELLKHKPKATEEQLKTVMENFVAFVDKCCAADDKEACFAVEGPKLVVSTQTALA
Description: as §1, §3, §4

[5] = biological target: T6, human tumor necrosis factor α (TNF) (Homo sapiens, UniProt P01375); experiment: Phage binding assay, specificity against negative control antigen TNF; settings: different phage concentrations
T6 construct: made in house
T6 sequence (P01375 77-233 limits assumed): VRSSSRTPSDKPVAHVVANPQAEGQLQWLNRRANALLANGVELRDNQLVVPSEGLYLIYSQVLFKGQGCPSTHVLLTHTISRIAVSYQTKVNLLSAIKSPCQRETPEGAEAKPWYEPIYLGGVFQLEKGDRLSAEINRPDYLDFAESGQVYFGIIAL
Description: as §1, §3, §4

[6] = biological target: T7, rhErbB2-Fc antigen (R&D Systems) (human, UniProt P04626 23-652); experiment: SPR: rhErbB2-Fc on a CM5 chip (~3000 RU), 2D3 injected in the presence of 25 µM HSA (concentration of 2D3 not given)
T7 construct: Bought; also called HER2 antigen; Her-2 antigen; not shown: Fc part of the bought fusion; not described
Description: (§6) FIG. 11: Surface plasmon resonance analysis of simultaneous binding of 2D3-17D12 fusion protein to HER2 antigen and human serum albumin (HSA). 2D3-17D12 fusion protein was pre-incubated or not with 1 and 5 μM HSA, followed by flow over immobilized 2D3 target antigen, rhErbB2-Fc. The dotted line represents the binding characteristics of 2D3 in presence of 25 μM HSA.

human serum albumin [7] = biological target: T8, human serum albumin (human, UniProt P02768 25-609); experiment: SPR: biotinylated peptide captured on a streptavidin sensorchip, HSA injected for 4 min at 10 µl/min, reference-subtracted
T8 construct: Bought protein; also called HSA
Description: Binding of the 2 synthetic peptides Ala-17D12-CDR3 and Cys-Ala-17D12-CDR3 to HSA was assessed by surface plasmon resonance. The biotinylated peptides are each captured on streptavidin-coated sensorchip SA T071122. HSA binding is assessed at various concentrations. The samples were injected for 4 min at a flow rate of 10 ul/min over the activated and reference surfaces to allow for binding to chip-bound antigen. Next, binding buffer without HSA is sent over the chip at the same flow rate to allow for dissociation of bound HSA. After 10 min, remaining bound analyte is removed by injecting regeneration solution (50 mM NaOH).

mouse serum albumin = biological target: T9, mouse serum albumin (mouse, UniProt P07724 25-608); experiment: phage binding assay on coated Maxisorp wells, 5 phage dilutions per peptide, Odyssey image
T9 construct: also called MSA
T9 sequence (P07724 25-608 limits assumed): as the sequence (P07724 25-608) above
Description: as §3
(§7) The phage binding assay was performed essentially as described in example 4. Full length 17D12 peptide as well as truncated peptides, 17D12-CDR3-NC and 17D12-CDR3-C, bind dose-dependently to HSA and CSA, whereas reactivity to MSA and BSA was not apparent in the assay performed (FIG. 6). There is no significant non-specific binding of 17D12 and 17D12-CDR3-NC to irrelevant proteins tested (ovalbumin and TNF). In contrast, there is a subtle degree of non-specific binding with the constrained truncated peptide.

bovine serum albumin = biological target: T10, bovine serum albumin (bovine, UniProt P02769 25-607); experiment: as above
T10 construct: also called BSA
T10 sequence (P02769 25-607 limits assumed): as the sequence (P02769 25-607) above
Description: as §3, §7

[8] = biological target: T11, human tumor necrosis factor α (human, UniProt P01375 77-233); experiment: as above
T11 construct: Negative control antigen; also called TNF
T11 sequence (P01375 77-233 limits assumed): as the sequence (P01375 77-233 limits assumed) above
Description: as §3, §7

cynomolgus serum albumin = biological target: T12, cynomolgus serum albumin (cynomolgus, UniProt A2V9Z4 25-608); experiment: phage binding assay on coated Maxisorp wells, 5 phage dilutions per peptide (concentrations not given), Odyssey image
T12 construct: also called CSA; cynoSA
T12 sequence (A2V9Z4 25-608 limits assumed): as the sequence (A2V9Z4 25-608) above
Description: as §3, §7

[9] = biological target: T13, ovalbumin (negative control antigen) (UniProt P01012 2-386); experiment: phage binding assay: ovalbumin coated on Maxisorp, M13 phage in 1/2 dilution series from 10^12 phages/mL, Odyssey intensity
T13 construct: Bought protein
T13 sequence (looked up): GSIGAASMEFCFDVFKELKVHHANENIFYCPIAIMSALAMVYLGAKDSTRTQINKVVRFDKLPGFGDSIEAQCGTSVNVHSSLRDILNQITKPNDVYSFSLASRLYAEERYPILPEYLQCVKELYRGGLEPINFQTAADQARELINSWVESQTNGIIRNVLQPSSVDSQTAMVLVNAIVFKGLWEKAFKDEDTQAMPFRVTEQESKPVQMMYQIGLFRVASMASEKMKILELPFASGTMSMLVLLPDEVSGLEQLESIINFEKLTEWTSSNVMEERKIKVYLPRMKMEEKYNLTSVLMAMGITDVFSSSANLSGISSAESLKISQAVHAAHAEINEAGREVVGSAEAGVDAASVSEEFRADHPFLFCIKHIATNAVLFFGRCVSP
Description: The phage binding assay to HSA and ovalbumin was performed essentially as described in example 4. Phages, produced in 10 mL culture volume, were incubated on both HSA and ovalbumin in a ½ dilution series, starting with 10¹² phages/mL. Dose-dependent binding to HSA was retained upon fusion of the peptide 17D12 at the C-terminus of a non-albumin binding intact VHH in the presence or absence of a GlySer linker (FIG. 9).

human serum albumin [10] = biological target: T8, human serum albumin; experiment: phage binding assay: 10 µg/mL HSA coated on Maxisorp, M13 phage displaying the peptide on pIII in 1/2 dilution series, anti-M13 + goat anti-mouse IRDye700, Odyssey intensity
Description: After two selection rounds, monoclonal phage were screened for binding on HSA versus negative control antigen, ovalbumin (A5378, Sigma). Wells of a Maxisorp microtiter plate (Nunc) were coated using 10 μg/mL HSA or ovalbumin and blocked with SuperBlock T20 PBS Blocking Buffer (Pierce) to prevent non-specific binding. Phages, produced in 96-well plate, were diluted 1/10 in 1:1 (v:v) Superblock T20 PBS Blocking Buffer:PBS+0.05% Tween-20 and incubated on both HSA and ovalbumin. Bound phages were detected using anti-M13 (GE Healthcare) and goat anti-mouse IRDye700 (Rockland) and signals were read-out on Odyssey (LI-COR Biosciences). […] This peptide is referred to as 17D12. Its full amino acid sequence is given in SEQ ID NO: 1, and its encoding nucleotide sequence is given in SEQ ID NO:2. The amino acid sequence of the CDR3 loop is given in SEQ ID NO:3.
The phage binding assay was performed essentially as described in example 3. Phages, produced in 10 mL culture volume, were incubated on both HSA and ovalbumin in a ½ dilution series, starting with 7.5×10¹¹ phages/mL. […] Non-specific binding to ovalbumin is slightly higher for the constrained truncated peptide.

[11] = biological target: T13, ovalbumin (negative control antigen); experiment: phage binding assay on coated Maxisorp wells, 5 phage dilutions per peptide, Odyssey image
Description: as §3, §7

[12] = biological target: T7, rhErbB2-Fc antigen (R&D Systems); experiment: SPR: rhErbB2-Fc on a CM5 chip (~3000 RU), 2D3-17D12 injected alone or pre-incubated with 1 or 5 µM HSA (concentration of 2D3-17D12 not given)
Description: as §6

[13] = 1/2 dilution series starting with 7.5×10^11 phages/mL

Molecule: caaasysdydvfgggtdfgpac (CAAASYSDYDVFGGGTDFGPAC; disulfide 1-22 (inferred); also: displayed on M13 phage pIII) [17D12-CDR3-C, truncated 17D12 lacking flanking FR residues, constrained loop, on M13 phage]
- Binding to HSA (Example 4) [1, 13]: bind dose-dependently to HSA
- Binding to HSA (Example 5, cross-reactivity) ([1]; different phage concentrations): bind dose-dependently
- Binding to negative control ovalbumin (Example 4) (ovalbumin; [13]): not to negative control peptide, ovalbumin
- Non-specific binding to irrelevant protein ovalbumin (Example 5) (ovalbumin; different phage concentrations): subtle degree of non-specific binding
- Binding to CSA [2]: bind dose-dependently
- Reactivity to MSA [3]: not apparent
- Reactivity to BSA [4]: not apparent
- Non-specific binding to irrelevant protein TNF [5]: subtle degree of non-specific binding

B1: 2D3 Nanobody (VHH that specifically binds to HER2) (VHH)
VHH: EVQLVESGGSLVQPGGSLRLSCAASGFTFDDYAMSWVRQVPGKGLEWVSSINWSGTHTDYADSVKGRFTISRNNANNTLYLQMNSLKSEDTAVYYCAKNWRDAGTTWFEKSGSAGQGTQVTVSS
notes: also called VHH 2D3
- binding result [6]: binds

B2: Cys-Ala-17D12-CDR3 synthetic biotinylated peptide (acetyl-CAAASYSDYDVFGGGTDFGP-c2 linker-biotin) (peptide)
peptide: Ac-CAAASYSDYDVFGGGTDFGP-{c2 linker-biotin}
modifications: reading uncertain
notes: Captured on a streptavidin-coated sensor chip; HSA injected as analyte; also called PEO-101.5
- binding result (human serum albumin [7]): binds

B3: Ala-17D12-CDR3 synthetic biotinylated peptide (acetyl-AAASYSDYDVFGGGTDFGP-c2 linker-biotin) (peptide)
peptide: Ac-AAASYSDYDVFGGGTDFGP-{c2 linker-biotin}
modifications: reading uncertain
notes: Captured on a streptavidin-coated sensor chip; HSA injected as analyte; also called PEO-100
- binding result (human serum albumin [7]): binds

B4: 17D12 peptide (CDR3 loop with flanking FR3 and FR4 residues), expressed on pIII of M13 phage (peptide)
peptide: DTAVYYCNAAASYSDYDVFGGGTDFGPWGQGTQV
modifications: not fully specified (C-terminus)
notes: also called full length 17D12; not shown: library construct: followed by His6 and c-myc tags, a short Gly-Ala-Ala linker and M13 pIII
- binding result (mouse serum albumin): no binding
- binding result (bovine serum albumin): no binding
- binding result [8]: no binding
- binding result (cynomolgus serum albumin): binds
- binding result [9]: no binding (tested: 100 x10^10 phage/mL)
- EC50 (read off the curve) (human serum albumin [10]): ~5e+10 phage/mL

B5: 17D12-CDR3-NC, non-constrained truncated CDR3 loop of 17D12 without flanking FR, expressed on pIII of M13 phage (peptide, not shown: large carriers)
peptide: AAASYSDYDVFGGGTDFGPA
modifications: not fully specified
notes: Tested as phage
- binding result [11]: no binding
- binding result (mouse serum albumin): no binding
- binding result (bovine serum albumin): no binding
- binding result [8]: no binding
- binding result (cynomolgus serum albumin): binds
- EC50 (read off the curve) (human serum albumin [10]): ~7e+10 phage/mL

B6: 2D3-17D12 fusion protein (other)
chain: EVQLVESGGSLVQPGGSLRLSCAASGFTFDDYAMSWVRQVPGKGLEWVSSINWSGTHTDYADSVKGRFTISRNNANNTLYLQMNSLKSEDTAVYYCAKNWRDAGTTWFEKSGSAGQGTQVTVSSDTAVYYCNAAASYSDYDVFGGGTDFGPWGQGTQVGGGS
notes: Soluble VHH-peptide fusion expressed in E. coli TG1 and purified by IMAC/SEC; also called Nanobody fusion peptide (2D3-17D12)
- binding result [12]: binds
